{"source": "the DeepSol protein solubility set"}
{"test": "soluble on expression in E. coli; label from the status in PepcDB or PDB records"}
{"sequence": "MKNKVVVVTGVPGVGGTTVTQKAMDILSEEGLNYKMVNFGSAMFDVANEEGLASDRDQMRKLDPETQKRIQKMAGRKIAEMAKESPVAVDTHSTVKTPKGYLPGLPAWVLTELNPDIVIVVETDGDEILMRRLSDESRKRDLETTASIEEHQFMNRAAAMSYGVLTGATVKIVKNKNGLVDNAVEELMSVLR", "soluble on expression in E. coli": "soluble"}
{"sequence": "MGSDKIHHHHHHMYEDELIFLEKTASIDIFEYSEQGIKTILDSPKHYNHGLMIRAAKLSREGFYSLVKYNSSYMLLVPLAKDKGLILSPKIDSLNNSESSFSNIDFINHSTSLAELAYFLYTKESAPNWNRVIYNLNEISDPVKQVQPMKNLHAFHRYANKMVDYFAQLDDKKFKLYINKMKSCQVFGDTLTTSNVIRGEKDILIDIISKLTDRSEKEGLPFEKVVFIQSVSVQKIELQANILNFNGWLEEIPYAYFNELKKWRENLFIDKADKIERYLKLNSRENIKLKDISKELGISEQSLNTIFKKKYGMTTKKYLIELKIENDKELLTTTELKIHDISEYLSFIDESYFISTFNKSCGMTPSKYRQNYIDKLLNKKSV", "soluble on expression in E. coli": "not soluble"}
{"sequence": "MGSDKIHHHHHHMVKVSIICTNYNKGSWIGEAIDSFLKQETSFPYEIIIVDDASTDHSVHIIKTYQKQYPDLIRAFFNQENQGITKTWSDICKKARGQYIARCDGDDYWIDPFKLQKQIDLLETSPESKWSNTDFDMVDSKGNIIHKDVLKNNIIPFMDSYEKMLALKGMTMASTWLVETKLMLEINDRINKDAVDDTFNIQLELFKKTKLAFLRDSTTVYRMDAESDSRSKDSEKLAQRFDRLLETQLEYIEKYPDSDYKKVLEYLLPKHNDFEKVLAQDGKNVWDNQQITIYLAKGDDQEFSEENCFQFPLQHSGNIQLTFPENIRKIRIDLSEIPSYYRQVSLVNTTVNTELLPTWTNAKVFGYSYYFIAPDPQMIYDLTAQEGQDFKLTYEWFNVDRPSQPDFLANHLVKELDQKKVELKMLSPYKYQYQKAVAERDLYLEQLNEMVVRYNSVTHSRRWTIPTKIINLFRRKK", "soluble on expression in E. coli": "not soluble"}
{"sequence": "MGSDKIHHHHHHMILLNYSQCFCLHNESRQKIAPSCWLNIGVHYMRIQQLRDLLEYVANCRLDMAQLYGRLNNQADSARVKMMLEYFESHQKHVAEKLRDYMDEAPVRVLDTWYKDFVFEDFTKRCQDTMLPANMNEDDVLNLHLDLENRLIGLLEKTVNSTTAEDARTALEGLIRVEKIQQQRLVHSTIRMDDI", "soluble on expression in E. coli": "not soluble"}
{"sequence": "MSLEPATAPRPDMAPELTPEEEQATKQFLEEINKWTVQYNVSPLSWNVAVKFLMARKFDVLRAVELFHCYRETRRKEGIVKLKPHEEPLRSEILSGKFTILNVRDPTGASIALFTARLHHPHKSAQHVVLQALFYLLDRAVDSFETQRNGLVFIYDMCGSNYANFELDLGKKVLNLLKGAFPARLKKVLIVGAPIWFRVPYSIISLLLKDKVRERIQILKTSEVTQHLPRECLPENLGGYVKIDLATWNFQFLPQVNGHPDPFDEIILSSLPPAEGHHHHHH", "soluble on expression in E. coli": "soluble"}
{"sequence": "MTNAALDDKTIVRDYFNSTGFDRWRRIYGDGQVNFVQKDIRVGHQQTVDSVVAWLVADGNLPGLLVCDAGCGVGSLSIPLAQAGALVYGSDISEKMVGEAQQKAQEVLAYGNQPTFMTQDLAQLGGKYDTVICLDVLIHYPTEEASAMISHLASLADRRLILSFAPKTLGLTVLKKIGGLFPGPSKTTRAYQHKEADIRKILGDNGFSIARTGMTSTRFYYSRILEAVRSLEHHHHHH", "soluble on expression in E. coli": "not soluble"}
{"sequence": "MSLAKPKVIVPMVTPLRGGSVDKNAASWLASRLSESGVDGVFVPGTTGEWYLLDPHERAEAFFAVASSAIAGLRLVAGVSGYRPEESYRLAEEAAGHGAHAVMAVPPIYFRPSTDFLREFYGEIKRRAGGLPTYIYIFPERMGYTLAVEQVESLVEAGVVDGIKATVTDAAYIAGLAAVKERNPEFEVLAGGLEMLVHTSLSGGDGVVDAYSNVAPKLAVELAESLEKGSVERVAGLQGRVLKLSRILGKRSLPAVLKAVLHVLGAPITGEVRKPLKPLTQPEANATANALCTSYRDYLLPGEGHHHHHH", "soluble on expression in E. coli": "soluble"}
{"sequence": "MRVRSETVNKPQSLRHALNKAVPYVRNNPDKLHLFVDNGSLVATGASSMSWEYRYTLNAVIEDFSGDQNLLMAPVLLWLRDNQPDAINNPALREKLFTFEVDILRNDVCDISLNLQLTERVLVSTDGSVSSVEAVAEPDEPEEMWTVKRG", "soluble on expression in E. coli": "not soluble"}
{"sequence": "SEASFVQTTMALGLSSKKASSRNVAVERKNLITVCRFSVKTLLEKYTAEPIDDSSEEFVNFAAILEQILSHRFKACAPAGPVSWFSSDGQRGFWDYIRLACSKVPNNCVSSIENMENISTARAKGRAWIRVALMEKRMSEYITTALRDTRTTRRFYDSGAIMLRDEATILTGMLIGLSAIDFSFCLKGEVLDGKTPVVIDYTPYLKFTQSYDYLTDEEERHSAESSTSEDNSPEHPYLPLVTDEDSWYSKWHKMEQKFRIVYAQKGYLEELVRLRESQLKDLEAENRRLQLQLEEAAAQNQREKRELEGVILELQEQLTGLIPSDHAPLAQGSKELTTPLVNQWPSLGTLNGAEGASNSKLYRRHSFMSTEPLSAEASLSSDSQRLGEGTRDEEPWGPIGSSEPN", "soluble on expression in E. coli": "soluble"}
{"sequence": "TITEWSVNMYNHLRGTGEDENILFSPLSIALAMGMMELGA", "soluble on expression in E. coli": "soluble"}
{"sequence": "VADSASTVTNEFSADHPFIYVIRHVDGKILFVGRYSSPTTN", "soluble on expression in E. coli": "soluble"}
{"sequence": "MSNTKNTSDSQESQQSSRKPQRSQATQTSQASQKSQSSQEPRRPKPMEVLREARAQLAELTGMTAESVSSFEQTEEGWVLEVEVLELERVPDTMSLMASYQVELDAEGQLTGYRRARRYERGRADSRGGRKLAAALEHHHHHH", "soluble on expression in E. coli": "soluble"}
{"sequence": "SEEEHPVSHKKSKKKSKKHKEKDQIKKLDIETMEEKEEDLQREETAKLSNASPNPNEGVKEGCTASMEPSSALELPDYLIKYIAIVSYEQRQNYKDDFNAEYDEYRALHARMETVARRFIKLDAQRKRLSPGSKEYQNVHEEVLQEYQKIKQSSPNYHEEKYRCEYLHNKLAHIKRLIGEFDQQQAESWH", "soluble on expression in E. coli": "soluble"}
{"sequence": "MQMNSEKFFKLFRVGETVLVEYSGTSRAELLLYYIVNNSKLPIVVDDILDTYYEFYTRLKVAGFDVAPLENVQVIKMGGTKDIGRVIGRLNISKYVISEQEYMEIVSQLKDYPVINPVLGLHKLILLGNTFENINVVKMVSNYVGREERIAFYFVNRNVIEKHSSPILDLLEEVVTSILEITDSGIIIKKSIKDEIAGKIVSPLLNF", "soluble on expression in E. coli": "soluble"}
{"sequence": "MGSDKIHHHHHHAQVTPFTYFNVDWQFNAPISNNFANKASGWGMNFEGGYYVLPDLSIGAFINYHTNNEYISRQTLPISNSAALTTDQQHSVFQLPFGFATHYRFSDGACQPYIGLKLGANYTKMSSDFYIYEVKDNTWGFYVSPEVGVNIYPWTNSIGFHLAAFYSYSTNKGTVFNYDMDKLNNFGFRLGVAF", "soluble on expression in E. coli": "not soluble"}
{"sequence": "MKQASAIPQPKTYGPLKNLPHLEKEQLSQSLWRIADELGPIFRFDFPGVSSVFVSGHNLVAEVCDEKRFDKNLGKGLQKVREFGGDGLFTSWTHEPNWQKAHRILLPSFSQKAMKGYHSMMLDIATQLIQKWSRLNPNEEIDVADDMTRLTLDTIGLCGFNYRFNSFYRDSQHPFITSMLRALKEAMNQSKRLGLQDKMMVKTKLQFQKDIEVMNSLVDRMIAERKANPDENIKDLLSLMLYAKDPVTGETLDDENIRYQIITFLIAGHETTSGLLSFAIYCLLTHPEKLKKAQEEADRVLTDDTPEYKQIQQLKYIRMVLNETLRLYPTAPAFSLYAKEDTVLGGEYPISKGQPVTVLIPKLHRDQNAWGPDAEDFRPERFEDPSSIPHHAYKPFGNGQRACIGMQFALQEATMVLGLVLKHFELINHTGYELKIKEALTIKPDDFKITVKPRKTAAINVQRKEQADIKAETKPKETKPKHGTPLLVLFGSNLGTAEGIAGELAAQGRQMGFTAETAPLDDYIGKLPEEGAVVIVTASYNGAPPDNAAGFVEWLKELEEGQLKGVSYAVFGCGNRSWASTYQRIPRLIDDMMKAKGASRLTAIGEGDAADDFESHRESWENRFWKETMDAFDINEIAQKEDRPSLSITFLSEATETPVAKAYGAFEGIVLENRELQTAASTRSTRHIELEIPAGKTYKEGDHIGILPKNSRELVQRVLSRFGLQSNHVIKVSGSAHMAHLPMDRPIKVVDLLSSYVELQEPASRLQLRELASYTVCPPHQKELEQLVSDDGIYKEQVLAKRLTMLDFLEDYPACEMPFERFLALLPSLKPRYYSISSSPKVHANIVSMTVGVVKASAWSGRGEYRGVASNYLAELNTGDAAACFIRTPQSGFQMPNDPETPMIMVGPGTGIAPFRGFIQARSVLKKEGSTLGEALLYFGCRRPDHDDLYREELDQAEQDGLVTIRRCYSRVENEPKGYVQHLLKQDTQKLMTLIEKGAHIYVCGDGSQMAPDVERTLRLAYEAEKAASQEESAVWLQKLQDQRRYVKDVW", "soluble on expression in E. coli": "soluble"}
{"sequence": "MSLVPARVFSCTILVDFQTEDQDTMCNLLRVQWTITPRTAPQPWLACNGCGDLRAFQASDKIRLNANGRKLDAWLIYRCLICDKSWNRPIFERQNVCDISPPVLEALQCNDPQWIRAETFNLEALRRKSQRIDEFPDFDIEKRIRDEPTDWAAAEIDLTVPFPASIRLDRLLASELGLSRSMLQKLHDGGQIRAQSDLLRRRLRNGTRIVIECGDGLDRERFWKPAVRGLEGHHHHHH", "soluble on expression in E. coli": "not soluble"}
{"sequence": "MDDIVPDVLDAVPAGTIKVIYGDDLEVKQGNELTPTQVKDQPIVSWSGLEGKSNLLTLLMVDPDAPTRQDPKYREILHWSVVNIPGSNENPSGGHSLADYVGSGPPKDTGLHRYIFLLYRQENKIEETPTISNTTRTGRLNFNARDFAAKHGLGEPIAANYYQAQYDDYVPIRNKTIVG", "soluble on expression in E. coli": "soluble"}
{"sequence": "MGSDKIHHHHHHMEFWESSFIEKQTMWGFEPTESAILAKDFFLEKNVKDILVPGIGYGRNAKVFIENSINVTGIEISKTAIDLARENGLEDVSIYHGSVNEMPFDNKLYDGIFSHALLHLLNDQEREGFIENCYNQLKPGAYMVFTTVSKKAPMYGKGKQLDKDYYEIMEGVKMFFYDSESIKKDFNQYGLVQVSEIDEPNKNMANKPSINFLTIKCKKEL", "soluble on expression in E. coli": "not soluble"}
{"sequence": "SLMDVKCETPNCPFFMSVNTQPLCHECSERRQKNQN", "soluble on expression in E. coli": "soluble"}
{"sequence": "MQLDPPEPGFYDDPDLSYSIEKSITNWDEKRHEWFKSHPSFKPGSENRILMVTGSQSSPCKNPIGDHLLLLRCFKNKVDYARIHGHDIFYSNSLLHPKMNSYWAKLPVVKAAMLAHPFMD", "soluble on expression in E. coli": "not soluble"}
{"sequence": "MQVPQDGEDLAGQPWYHGLLSRQKAEALLQQNGDFLVRASGSRGGNPVISCRWRGSALHFEVFRVALRPRPGRPTALFQLEDEQFPSIPALVHSYMTGRRPLSQATGAVVSRPVTWQGPLRRSFSEDTLMDGPARIEPLRARKWSNSQPADLAHMGRSREDPAGMEASTMPISALPRTSSDPVLLKAPAPLGTVADSLRASDGQLQAKAPTKPPRTPSFELPDASERPPTYCELVPRVPSVQGTSPSQSCPEPEAPWWEAEEDEEEENRCFTRPQAEISFCPHDAPSCLLGPQNRPLEPQVLHTLRGLFLEHHPGSTALHLLLVDCQATGLLGVTRDQRGNMGVSSGLELLTLPHGHHLRLELLERHQTLALAGALAVLGCSGPLEERAAALRGLVELALALRPGAAGDLPGLAAVMGALLMPQVSRLEHTWRQLRRSHTEAALAFEQELKPLMRALDEGAGPCDPGEVALPHVAPMVRLLEGEEVAGPLDESCERLLRTLHGARHMVRDAPKFRKVAAQRLRGFRPNPELREALTTGFVRRLLWGSRGAGAPRAERFEKFQRVLGVLSQRLEPDR", "soluble on expression in E. coli": "soluble"}
